According to patent US20050226885A1:
“And” between values parts separate entries of the source, which are not always exact repeats. Identical values can stand only once.

Biological target: C215 antigen (human GA-733 antigen recognized by the C215 mAb) (human) (UniProt P16422)
Experiment: FACS on Colo205 cells

Sequence of UniProt P16422 (P16422 24-314): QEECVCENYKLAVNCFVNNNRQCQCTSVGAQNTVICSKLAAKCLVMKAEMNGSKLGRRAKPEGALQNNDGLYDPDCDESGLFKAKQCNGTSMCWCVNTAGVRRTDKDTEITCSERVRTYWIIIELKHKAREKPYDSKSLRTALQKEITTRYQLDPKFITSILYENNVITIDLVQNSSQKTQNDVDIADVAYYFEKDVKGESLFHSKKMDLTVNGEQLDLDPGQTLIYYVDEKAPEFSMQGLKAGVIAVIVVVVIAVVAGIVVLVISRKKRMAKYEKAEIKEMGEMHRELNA

Substance: CD80-C215Fab (from UniProt P33681 35-242)
- fold lower binding than that of C215Fab-SEA: 50 fold lower and 100 fold lower
- fold reduction of binding compared to C215Fab-SEA: 100 fold reduced
